Target: T1, integrin GPIIb-IIIa on ADP-activated human platelets (human, UniProt P08514 32-1039; P05106 27-788)
T1 construct: whole, on cells; no isolated integrin was tested; also called active platelet GPIIb-IIIa
Assay: human platelets (low platelet concentration, ADP) incubated on coverslips coated with cRGD-modified biotinylated liposomes; anti-CD62P fluorescence microscopy

binding result: binds
B1: cyclic RGD peptide cyclo-CNPRGDY(OEt)RC (cRGD), conjugated to DSPE-PEG and displayed on liposomes (peptide)
peptide: CNPRGDYRC
modifications: not fully specified; cyclised by a disulphide between the terminal cysteines; Y(OEt) = O-ethyl tyrosine; N-terminus conjugated to DSPE-PEG2000-COOH; many copies on a ~150 nm liposome
notes: Tested only as a multivalent decoration on liposomes (2.5 mol %); also called GBP

Source: patent publication US20200030416A1 (CASE WESTERN RESERVE UNIVERSITY, published 2020)
